Consider 167 variants from the RNAGym collection of RNA variant scans (doi:10.7554/elife.80360).

B1: Twister Ribozyme (parent)
chain: AACACUGCCAAUGCCGGUCCCAAGCCCGGAUAAAAGUGGAGGGGGCGG

In this series the parent is B1. The experiment in a line: self-cleavage, relative activity (ratio to wild type); higher = more cleavage; co-transcriptional.
With C14A C46A, the self-cleavage was 0.773.
In the case of C5G A10G, the self-cleavage is 1.17.
The same measure for U12G G17U: 0.239.
With C19G C26U, the self-cleavage is 0.0735.
As for G44U C46U, the self-cleavage came out at 1.02.
With C25G A33C the figure was 0.227.
The same measure for C9A G38A: 0.393; for C20U A40C: 0.0976; for A4C G38A: 0.142.
The same measure for A2U A40U: 0.154.
With A4G G28C, the self-cleavage turned out to be 0.529.
The same measure for C19A A30C: 0.124; for U31G A33G: 1.02.
On to G16C A23C, for which the self-cleavage turned out to be 0.0636.
The same measure for G41U G48C: 0.738; for C20G G41U: 0.0931.
Turning to C9U C25A, the self-cleavage was 0.1.
With A2G G39A the figure was 0.143; with A23G G44C, 0.508; with C19U A35C, 1.05.
For C20U A33U, the self-cleavage amounted to 0.778.
Take G17C C21A: the self-cleavage stood at 0.0572.
With A2C C25G the figure was 0.0416.
The same measure for C15A A35C: 0.546; for A2C C26U: 0.0792; for C21A G42A: 0.0769.
The same measure for A4G G17C: 0.0548; for C3G A10U: 0.648; for C8G G44C: 0.177.
Turning to A1C G43C, the self-cleavage worked out at 0.141.
For the variant U12G A30G, the self-cleavage was found to be 0.783.
The same measure for G16A C21U: 0.0697; for C8G C15U: 0.534.
With U6C A40G the figure was 0.0788; with G29C G43C, 0.118; with A30U A40U, 0.152.
With C20A G47A the figure was 0.0961; with A34U G41U, 0.185; with C19A G47U, 0.131.
C14G C26U: the self-cleavage turned out to be 0.0493.
The same measure for U31C G48A: 0.901.
With A10U A40U the figure was 0.111; with C19G C25A, 0.0881; with C27A A40C, 0.155.
The same measure for A4U G36U: 0.0439; for C20U G38U: 0.742.
Take A1U G29U: the self-cleavage stood at 0.0849.
The same measure for G7A A10U: 0.505; for A1G C9A: 0.226; for G16U U18A: 0.605.
With G16U U18G the figure was 0.0727.
In the case of G28A G39A, the self-cleavage stood at 0.326.
The same measure for U37C G43U: 0.106; for A35G G44U: 0.831; for C15A G24A: 0.0695.
The same measure for G24A G42A: 0.0855; for G42C G45C: 0.131; for C14G G44C: 0.129.
For the variant A1G C26U, the self-cleavage amounted to 0.188.
The same measure for G44U: 0.974.
With A4C C21U the figure was 0.0583.
With A1G U37G the figure was 0.295; with A22C C25A, 0.12.
For G16A G41C, the self-cleavage turned out to be 0.167.
With A11U G28C the figure was 0.801; with C8G G29U, 0.156.
The same measure for C9A C15U: 0.567; for C3A G16C: 0.0608.
With A30C G39A the figure was 0.189; with C19U U37A, 0.406; with C19U C46G, 0.929.
With A1G G42C, the self-cleavage came out at 0.251.
With A4C A11U the figure was 0.16.
With G13C G36U the figure was 0.0844.
With A10C U18C the figure was 0.787; with C3A C19U, 0.153.
In the case of C20G A30G, the self-cleavage was found to be 0.233.
The same measure for U18C A34C: 0.0598.
With A11G A32U the figure was 0.841; with A4G A34U, 0.499; with A23U A32U, 0.494.
Consider C5A G17U, for which the self-cleavage is 0.0729.
With C5A G17A, the self-cleavage stood at 0.0903.
With A33C G38A the figure was 0.867; with A2G A34U, 0.166.
With A23C G47U the figure was 0.145; with G13C C27A, 0.0712; with C3G C25G, 0.109.
With A11U A34C the figure was 0.365; with A10C C27A, 0.673.
As to A30C A40G, the self-cleavage came to 0.189.
The same measure for C21G A40U: 0.129; for G38A G48A: 0.998.
The same measure for A2G C25U: 0.128.
The same measure for A10C G41A: 0.494; for G13C G16C: 0.044; for A32U A40C: 0.204.
As for U12G C25G, the self-cleavage was determined as 0.486.
The same measure for C9A G48C: 0.541.
Regarding C3U G7C, the self-cleavage turned out to be 0.0424.
With G29U A30C the figure was 1.06.
With A23G G36C the figure was 0.0979; with C14G G42A, 0.0786; with C14U A34U, 0.951.
With A22U U31C the figure was 0.935.
Take C9U G13U: the self-cleavage stood at 0.826.
The same measure for G13A C19G: 0.123; for G39U C46A: 0.19; for C20U G42C: 0.654.
The same measure for A23C G39U: 0.0921; for A33G G44A: 0.79; for A35G G47C: 0.562.
The same measure for A1C A10C: 0.0756.
A10U G47A: the self-cleavage was 0.946.
For A10U G47C, the self-cleavage is 0.596.
With A4G A11U the figure was 0.996.
With A22C G28C the figure was 0.955; with A30C U37A, 0.231; with C5A A35U, 0.508.
The same measure for A22G G38C: 0.0945.
As for C9G C15U, the self-cleavage was 0.479.
The same measure for G7A U12C: 0.455.
With C21G C46G the figure was 0.113; with A10C G36C, 0.688; with A11U A33U, 1.03.
A1U C27G: the self-cleavage was 0.0626.
With C8A G13U the figure was 0.261; with U37C G48C, 0.843.
U18G G41C: the self-cleavage was 0.0434.
Regarding U12A A30C, the self-cleavage amounted to 0.893.
With C3G G16C the figure was 0.123; with C20A A23G, 0.0659.
Consider U37C G41A, for which the self-cleavage turned out to be 0.134.
The same measure for A22G G36A: 0.0781.
The same measure for A4U A40G: 0.0581.
With C5A G47C the figure was 0.199; with C19G U31A, 0.346.
Regarding A40C G43A, the self-cleavage turned out to be 0.138.
With A11G G48U, the self-cleavage is 0.942.
The same measure for C21U G24U: 0.106; for U18C G29C: 0.0613.
With C9G U12C the figure was 0.812.
With C25G G41U the figure was 0.133; with G7U G39A, 0.0425; with G16A G43U, 0.321.
Consider C5A C8G, for which the self-cleavage stood at 0.106.
The same measure for G7A G28U: 0.28.
As to C5G A11U, the self-cleavage was 0.665.
With U18A A23C the figure was 0.372.
With A2C G13A, the self-cleavage turned out to be 0.0468.
The same measure for A30U G42C: 0.501.
Consider U18A A40C, for which the self-cleavage was determined as 0.133.
With U18A A40U the figure was 0.147.
The same measure for A4G G36A: 0.385; for U18C G39A: 0.111.
For the variant G7C G44U, the self-cleavage was determined as 0.0818.
The same measure for C9G G38A: 0.278; for C26U C46U: 0.519; for C9G A23U: 0.0839.
With C15G U37G the figure was 0.143; with A4G C26G, 0.169.
With A11G C19U the figure was 0.792.
In the case of G16U C46G, the self-cleavage came to 0.963.
The same measure for C8U A10U: 0.582.
For the variant A4U A23U, the self-cleavage is 0.0527.
With C5U G24C the figure was 0.0979; with A33G C46G, 0.855.
